“Also recorded” adds a separate entry of the source.
Experiments:
hepatic cells [1] = assay: Hepatic glucose uptake (fluorescent 2-NBDG assay); type: cell-based; settings: transfected cells treated with EPA
[2] = system: endogenous HOPS subunits (Vps41, Vps11, Vps39); assay: Proximity ligation assay (in situ co-IP) of Arl8b with HOPS subunits; type: cell-based, rat; settings: mCherry-tagged Arl8b mutants; baseline and 1 h post-EPA
Procedure: In certain non-limiting examples described herein, McA-RH7777 cells stably expressing human apoB-100 and human apoC-III (designated A18-C3) were used for the studies. […] In addition, these studies, particularly those concerning EPA- or DHA-triggered lysosomal motility and CLD degradation, were also performed using primary rat hepatocytes. Transfection of plasmids encoding proteins of interest, or transfection of siRNA specific for silencing target gene expression, was achieved using the FuGENE HP Extreme reagent (Roche). Representative gene silencing siRNA sequences, which are not meant to be limiting, are described in Table 1, and plasmids encoding proteins of interest are described in Table 2. The effectiveness of siRNA silencing was verified by Western-blotting of cellular content of the target proteins, and by intracellular localization assay using siRNA-Tracker (Mirus Bioscience). Twenty-four h after plasmid transfection, or 48 h after siRNA transfection, the cells were cultured in lipid-rich media containing fetal bovine serum (20%) and OA (0.4 mM). The lipid-laden cells were switched to fresh media supplemented with OA or EPA (0.4 mM). In live imaging experiments, LipidTOX Red (Life Technologies) and LysoTracker (Life Technologies) were added to media prior to EPA treatment, to visualize lipid droplets and lysosomes, respectively. For visualizing peroxisomes, Peroxisome-GFP (Invitrogen) was introduced to the cells 24 h prior to experiments. Quantification of cell lipid contents was achieved either by direct mass measurement (HPTLC) and counting the number of lipid droplets using Image J Lipid Droplet Counter Plug-In, or indirectly by Western blot analysis of cellular content of ADRP. Secretion of apoB and TG-rich lipoprotein was determined by Western blot analysis and metabolic labeling. Mitochondrial β-oxidation was measured using MitoSOX Red (Life Technologies) in situ. Autophagic flux was determined by using Cyto-ID assay (Enzo Life Science) and by monitoring GFP-LC3 clustering in situ. Interaction of Arl8b and subunits of the HOPS complex was determined in situ by the proximity ligation assay (Olink Biosience). Cytoplasmic pH was measured using the cytosolic pHrodo indicator reagent (Invitrogen). Live imaging of fluorescent-tagged proteins was performed 1 h post-EPA treatment. Cells were also collected at the time of EPA treatment for transmission EM and tomography, as well as immuno-EM. For movies, cells were imaged at 60 sec intervals every 5 min, for a total of 30 min.
Cells were transfected with plasmids encoding RFP-tagged Arl8b^WT, Arl8b^Q75L, or Arl8b^T34N. The cells were treated with OA for 16 h (baseline condition as control). […] Quantification of signals was done in a total of 50 cells under each condition from 3 independent experiments.

hepatic cells [3] = assay: Prolonged oleate treatment (OA-induced steatosis) of hepatic cells; type: cell-based; settings: for steatosis (CLD accumulation): oleate 0.4 mM for up to 3 days
Description: FIG. 36 illustrates that the LD content in cells cultured under lipid-rich conditions may be manipulated by expression of different forms of Arl8b. Images in the top row show position of lysosomes in cells cultured in a lipid-rich medium (i.e. supplemented with oleate) for up to 4 days. After 1-day treatment with oleate, lysosomes (stained with LysoTracker, green) were accumulated in the perinuclear regions of cells. However after 2-day oleate treatment, lysosomes were relocated towards the LDs at cell periphery. The relocation of lysosomes from the perinuclear region toward cell periphery indicates perturbed lysosomal motility under oleate-treatment conditions, which leads to prolonged association of lysosomes with LDs. Accumulation/higher interaction of lysosomes on LDs became more pronounced after 3- and 4-day treatment with oleate, with clear rings of lysosomes around LDs. Expression of the GDP-bound form of Arl8b, or Arl8b^T34N (or Arl8b “DN”, dominant negative), protects hepatocytes from accumulation of LDs upon long-term treatment with oleate. Note that even after 3 days, cells expressing Arl8b “DN” were healthy and accumulated low numbers of LDs (middle row). In contrast, expression of the GTP-bound form of Arl8b, or Arl8b^Q75L (or Arl8b “DA”, dominant active), exacerbated accumulation of LDs in cells (images in the bottom row). In fact, the cells could not tolerate long-term treatment and started to die after day 2. This situation may be similar to that in advanced levels of fatty liver, which causes hepatocyte apoptosis;
In these cells, lysosomes were continuously in contact with CLD, indicative of stalled lysosomal motility. This persistent lysosomal interaction with CLDs (i.e. “kiss” without “run”) clearly indicates the interfered process of microautophagy and lack of a mechanism in the cells, after prolonged OA treatment, that facilitates dissociation of lysosomes from CLDs, blocking the engulfment process. Thus, phenotypically, accumulation of CLD in cells cultured in lipid-rich media (e.g. supplementation with 0.4 mM OA) is invariably associated with a compromised lysosomal motility (i.e. kiss-and-run).

[4] = system: primary neurons from parkinsonian mice; assay: Lysosome and cell morphology in Parkinson's disease primary neurons; type: cell-based, mouse
[5] = system: McA-RH7777 cells (A18-C3); assay: Autophagic flux (Cyto-ID assay); type: cell-based, rat
Procedure: In certain non-limiting examples described herein, McA-RH7777 cells stably expressing human apoB-100 and human apoC-III (designated A18-C3) were used for the studies. […] In addition, these studies, particularly those concerning EPA- or DHA-triggered lysosomal motility and CLD degradation, were also performed using primary rat hepatocytes. Transfection of plasmids encoding proteins of interest, or transfection of siRNA specific for silencing target gene expression, was achieved using the FuGENE HP Extreme reagent (Roche). […] Quantification of cell lipid contents was achieved either by direct mass measurement (HPTLC) and counting the number of lipid droplets using Image J Lipid Droplet Counter Plug-In, or indirectly by Western blot analysis of cellular content of ADRP. Secretion of apoB and TG-rich lipoprotein was determined by Western blot analysis and metabolic labeling. Mitochondrial β-oxidation was measured using MitoSOX Red (Life Technologies) in situ. Autophagic flux was determined by using Cyto-ID assay (Enzo Life Science) and by monitoring GFP-LC3 clustering in situ. Interaction of Arl8b and subunits of the HOPS complex was determined in situ by the proximity ligation assay (Olink Biosience). Cytoplasmic pH was measured using the cytosolic pHrodo indicator reagent (Invitrogen). […]

[6] = transfection of PD primary neurons

Molecule	glucose uptake (hepatic cells [1])	binding to endogenous HOPS subunits [2]	steatosis (CLD accumulation) (hepatic cells [3])	axonal swelling and degeneration in PD primary neurons [4, 6]	lysosomal phenotype (ring shape structure) in PD primary neurons [4, 6]	autophagic flux upon EPA treatment in transfected cells [5]	cell survival under OA treatment (hepatic cells [3]; medium with 0.4 mM OA, 2-day incubation)	lysosomal phenotype of normal primary neurons ([4]; transfection of normal primary neurons)
Arl8b^T34N: putative GDP-bound, dominant negative Arl8b mutant (Thr-to-Asn at 34; SEQ ID NO: 12), expressed from plasmid or adenovirus Adv-MG1023; tagged forms used (protein, GFP/RFP tags in some forms; T34N substitution, GDP-binding, tagged forms used) MLALISRLLDWFRSLFWKEEMELTLVGLQYSGKNTFVNVIASGQFSEDMIPTVGFNMRKVTKGNVTIKIWDIGGQPRFRSMWERYCRGVNAIVYMIDAADREKIEASRNELHNLLDKPQLQGIPVLVLGNKRDLPNALDEKQLIEKMNLSAIQDREICCYSISCKEKDNIDITLQWLIQHSKSRRS	increased rate of glucose uptake	only shows interaction with Vps39	without indication of steatosis	restored axonal swelling and degeneration; also recorded: restore axons	cleared the ring shape structure of lysosomes	does not induce autophagic flux	–	–
Arl8b^Q75L: putative GTP-bound, dominant active Arl8b mutant (Gln-to-Leu at 75; SEQ ID NO: 13), expressed from plasmid or adenovirus Adv-MG1022; tagged forms used (protein, GFP/RFP tags in some forms; Q75L substitution, GTP-binding, tagged forms used) MLALISRLLDWFRSLFWKEEMELTLVGLQYSGKTTFVNVIASGQFSEDMIPTVGFNMRKVTKGNVTIKIWDIGGLPRFRSMWERYCRGVNAIVYMIDAADREKIEASRNELHNLLDKPQLQGIPVLVLGNKRDLPNALDEKQLIEKMNLSAIQDREICCYSISCKEKDNIDITLQWLIQHSKSRRS	virtually abolished glucose uptake	binds to Vps41 and Vps11; also recorded: does not bind to Vps39	developed severe steatosis	–	–	–	most of the cells died	converts normal neuronal lysosomes to PD primary neuron phenotype

— US11298402B2, “Lysosomal degradation of lipids and proteins and method of use thereof” (University of Ottawa, priority 2015, dated 2022)
